Reference: the nanobody polyreactivity screen of Harvey et al. (2022)

Assay: yeast display, Sf9 membrane polyspecificity reagent, FACS + sequencing; frameworks hold sequencing errors
Summary of the method: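 Genes from sorted yeast were amplified by colony PCR, read by MiSeq 2 × 250 sequencing and filtered on CDR length. These cells carried a synthetic nanobody library in Saccharomyces cerevisiae BJ5465 and were sorted by FACS into low and high (top ~1%) gates on anti-HA and streptavidin fluorescence. Polyreactivity is labelled according to the gate of origin.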

| Sequence | polyreactivity (PSR sort gate) |
| --- | --- |
| QVQLVESGGGLVQAGGSLRLSCAASGLILVPNTMGWYRQAPGKERELVAAISYSGGGTYYADSVKGRFTISRDNAKNTVYLQMNSLKPEDTAVYYCAADFYQSHFYRPRYDYWGQGTQVTVSS | low polyreactivity |
| QVQLVESGGGLVQAGGSLRLSCAASGLILYFNARGWYRQAPGKERELVADISSSGSSTYYADSVKGRFTISRDNAKNTVYLQMNSLKPEDTAVYYCAAGYYGEYWRSWYDYWGQGTQVTVSS | low polyreactivity |
| QVQLVESGGGLVQAGGSLRLSCAASGLILYRYAMGWYRQAPGKERELVAAITTSGSSTFYADSVKGRFTISRDNAKNTVYLQMNSLKPEDTAVYYCAATRPRYGIYWYDYWGQGTQVTVSS | high polyreactivity |
| QVQLVESGGGLVQAGGSLRLSCAASGLILYSYAMGWYRQAPGKERELVADISSGGITNYADSVKGRFTISRDNAKNTVYLQMNSLKPEDTAVYYCAADTRTSYYNDDYDYWGQGTQVTVSS | low polyreactivity |
| QVQLVESGGGLVQAGGSLRLSCAASGLIMRTNVMGWYRQPPGKERELVAAINFRTGSTYYADSVKGRFTISRDHAKNTVYLQMNSLKPEDTAVYYCAKAERRHYDYWGQGTQVTVSS | low polyreactivity |
| QVQLVESGGGLVQAGGSLRLSCAASGLISGDYAMGWYRQAPGKERELVARITSGDSTNYADSVKGRFTISRDNAKNTVYLQMNSLKPEDTAVYYCAAKRYVFQNDYWGQGTQVTVSS | low polyreactivity |
| QVQLVESGGGLVQAGGSLRLSCAASGLNFARNAMGWYRQAPGKERELVASITSGGSTNYADSVKGRFTISRDNAKNTVYLQMNSLKPEDTAVYFCNKAYFFPYPRYRYEYWGQGTQVTVSS | high polyreactivity |
| QVQLVESGGGLVQAGGSLRLSCAASGLTFADYAMGWYRQAPGKERELVAAISRRGGSTYYADSVKGRFTISRDNAKNTVYLQMNSLKPEDTAVYYCAAGNRVNRFDYWGQGTQVTVSS | high polyreactivity |
| QVQLVESGGGLVQAGGSLRLSCAASGLTFAFYAMGWYRQAPGKEREFVAAITTGGSTYYADSVKGRFTISRDNAKNTVYLQMNSLKPEDTAVYYCAADLYRRRGQFDYWGQGTQVTVSS | high polyreactivity |
| QVQLVESGGGLVQAGGSLRLSCAASGLTFAQNAMGWYRQAPGKERELVAAITRSGGRTYYADSVKGRFTISRDNSKNTVYFQMNSLKPEDTAVYYCAARVLQYSGYYYWGQGTQVTVSS | high polyreactivity |
| QVQLVESGGGLVQAGGSLRLSCAASGLTFARYAMGWYRQAPGKERELVAGISWSGGRTYYADSVKGRFTISRDNAKNTVYLQMNSLKPEDTAVYYCATTQFQRSGYYYWGQGTQVTVSS | high polyreactivity |
| QVQLVESGGGLVQAGGSLRLSCAASGLTFAVYAMGWYRQAPGKERELVAAITYSGSRTYYADSVKGRFTISRDNAKNTVYLQMNSLKPEDTAVYYCNALYRRDIKFYYWGQGTQVTVSS | high polyreactivity |
| QVQLVESGGGLVQAGGSLRLSCAASGLTFAYYAMGWYRQAPGKERELVAVISSAGSTYYADSVKGRFTISRDNAKNTVYLQMNSLNPEDTAVYYCAARAPSSISQTRGMYYWGQGTQVTVSS | high polyreactivity |
| QVQLVESGGGLVQAGGSLRLSCAASGLTFAYYVMGSYRQAPWKERELVAAISRRGGSTYYADSVKGRFTISRDNAKNTVYLQMNSLKPEDTAVYYCNTDWPLPNGGEPGYWGQGTQVTVSS | high polyreactivity |
| QVQLVESGGGLVQAGGSLRLSCAASGLTFDAYAMGWYRQAPGKERELDAAISSGGNTYYADSVKGRFTISRDNAKNTVYLQMNSLKPEDTAVYYCNAVGYYKYFFLAYEYDYWGQGTQVTVSS | low polyreactivity |
| QVQLVESGGGLVQAGGSLRLSCAASGLTFDNYAMGWYRQAPGKERELVAAISTSSGRTYYADSVKGRFTISRDNAKNTVYLQMNSLKPEDTAVYYCAAEVAFIYSYYEVYKYEYWGQGTQVTVSS | high polyreactivity |
| QVQLVESGGGLVQAGGSLRLSCAASGLTFDSYTMGWYRQAPGKERELVAAITNSGGSTYYADSVKGRFTISRDNAKNTVYLQMNSLKPEDTAVYYCAAFRTSRLYGGSYGYWGQGTQVTVSS | high polyreactivity |
| QVQLVESGGGLVQAGGSLRLSCAASGLTFEHNAMGWYRQAPGKEREFVAVISWRGTSTYYADSVKGRFTISRDNAKNTVYLQMNSLKPEATAVYYCAAGYRGVANRKWIYYYWGQGTQVTVSS | high polyreactivity |
| QVQLVESGGGLVQAGGSLRLSCAASGLTFERNAMGWYRQAPGKERELVAAISSGGSTYYADSVKGRFTISRDNAKNTVYLQMNSLKPEDTAVYYCAVYDWNSYFYRSWWSGFYYWGQGTQVTVSS | low polyreactivity |
| QVQLVESGGGLVQAGGSLRLSCAASGLTFESYAMGWYRQAPGKERELVAGIDWSGGSTYYADSVKGRFTISRDNAKNTVYLQMNSLKPEDTAGYYCKRYGNSNYFAPGPLYNYWGQGTQVTVSS | high polyreactivity |
| QVQLVESGGGLVQAGGSLRLSCAASGLTFFGYPMGWYRQAPGKEREFVADITWSGGSTYYADSVKGRFTISRDNAKNTVYLQMNSLKPEDTAVYYCAADYHKAEFNYWGQGTQVTVSS | low polyreactivity |
| QVQLVESGGGLVQAGGSLRLSCAASGLTFFRNAMGWYRQAPGKEREFVAGITSTDGSTYYADSVKGRFTISRDNAKNTVYLQMNSLKPEDTAVYYCAAAYRVRGRTYDSWGQGTQVTVSS | high polyreactivity |

| Sequence | polyreactivity (PSR sort gate) |
| --- | --- |
| QVQLVESGGGLVQAGGSLRLSCAASGLTFGDYAMGWYRQAPGKERELVAAITKSGGRTYYADSVKGRFTISRDNAKNTVYLQMNSLKPEDTEVYYCATRKGRRYGYNYWGQGTQVTVSS | high polyreactivity |
| QVQLVESGGGLVQAGGSLRLSCAASGLTFGDYTMGWYRQAPGKERELVAAITWSGASTYYADSVKGRFTISRDNAKNTVYLQMHSLKPEDTAVYYCAAERTPSYRAYDYWGQGTKVTVSS | low polyreactivity |
| QVQLVESGGGLVQAGGSLRLSCAASGLTFGDYVMGWYRPAPGKERELVATITSDGGTTYADSVKGRFTISRDNAKNTVYLQMNSLKPEDTAVYYCNADAVVDNYVGFSAAGYDYWGQGTQVTVSS | low polyreactivity |
| QVQLVESGGGLVQAGGSLRLSCAASGLTFGKYAMGWYRQAPGKERELVAAISRRGGSTYYADSVKGRFTISRDNANNTVYLQMNSLKPEDTAVYFCNTDTKHTGLDYWGQGTQVTVSS | high polyreactivity |
| QVQLVESGGGLVQAGGSLRLSCAASGLTFGNYAMGSYRQAPGKERELVAAITSGGSTYYADSVKGRFTISRDNAKNTVYLQMNSLKPEDTAVYYCAKRQSQHYRSYLMDYWGQGTQVTVSS | low polyreactivity |
| QVQLVESGGGLVQAGGSLRLSCAASGLTFGRYAMGWYRQAPGKERELVAAISSGGSTYYADSVKGRFTISRDNAKNTVYLQMNSLKPEDTAVYYCAADYVGWYFVSGRDYWGQGTQVTVSS | low polyreactivity |
| QVQLVESGGGLVQAGGSLRLSCAASGLTFGRYAMGWYRQAPGKERELVAAITWIGDGTYYGDSVKGRFTISRDNAKKTVYLQMNSLTPEDTAVYYCAAVYYTYLYGRYNYWGQGTQVTVSS | low polyreactivity |
| QVQLVESGGGLVQAGGSLRLSCAASGLTFGRYAMGWYRQAPGKERELVAVINGSGGNTYYADSVKGRFTISRDNAKNTVYLQMNSLKPEDTAVYYCAARRTVQYTLYYYPDYNYWGQGTQVTVSS | low polyreactivity |
| QVQLVESGGGLVQAGGSLRLSCAASGLTFGSNGMGWYRQAPGKERELVAAISRGGSTSYADSVKGRFTISRDNAKNTVYLQMNSLKPEDTAVYYCAARSYRYSYRYRAFDYWGQGTQVTVSS | high polyreactivity |
| QVQLVESGGGLVQAGGSLRLSCAASGLTFGTNAMGWSRQAPGKERELVAAISTSSGSTYYSDSVKGRFTISRDNAKNTDYLQMNSLKPEDTAVYYSAAVTVTNLSYYRYYYWGQGTQVTVSS | low polyreactivity |
| QVQLVESGGGLVQAGGSLRLSCAASGLTFGTYAMGWYRPAPGKERELVAAIRSGGSTNYADSVKGRFTISRDNAKNTVYLQMNSLKPEDTAVYYCAKRYYWDRYYYWGQGTQVTVSS | high polyreactivity |
| QVQLVESGGGLVQAGGSLRLSCAASGLTFGVNAMGWYRQAPGKERELVAVITSGGNTYYADSVKGRFTISRDNAKNTVYLQMNSLKPEDTAVYYCAAYGRASWERDYWGQGTQVTVSS | low polyreactivity |
| QVQLVESGGGLVQAGGSLRLSCAASGLTFHAYAMGWYRQPPGKEREFVAAITRSGSSTSYADSVKGRFTISRDNAKNTVYLQMNSLKPEDTAVYYCAAQGSRKYRNDYWGQGTQVTVSS | high polyreactivity |
| QVQLVESGGGLVQAGGSLRLSCAASGLTFHSNDMGRYRQAPWKETEFVAAITSGGNTYYADSVKGRFTISRDNAKNTVYLPMNSLKPEDTAVYYCNADYQDEEDDYWGQGTQVTVSS | low polyreactivity |
| QVQLVESGGGLVQAGGSLRLSCAASGLTFIVYAMGWYRPAPGKERELVADITWSGGSTYYADSLKGRFTISRDNAKNTVYLQMNSLKPEATAVYYCNRQSAKIMDYWGQGTQVTVSS | low polyreactivity |
| QVQLVESGGGLVQAGGSLRLSCAASGLTFIYNAMGWYRQAPGKERELVAAISGNGGDTYYADSVKGRFTISRDNAKNTVYIQMNSLKPEDTAVYYCAADYAYTPITWDEYWGQGTQVTVSS | low polyreactivity |
| QVQLVESGGGLVQAGGSLRLSCAASGLTFKENVMGWYRQAPGKERELVAAISTGASTYYADSVKGRCTISRDNAKNTVYLQMNSLKPEDTAVYYGAKRVTRWYGYWGQGTQVTVSS | high polyreactivity |
| QVQLVESGGGLVQAGGSLRLSCAASGLTFKINAMGWYRQAPGKERELVAAIRSSGGRTYADSVKGRFTISRDNAKNTVYLQMNSLKPEDTAVYYCNKSPGYRSGRAVLYDYWGQGTQVTVSS | low polyreactivity |
| QVQLVESGGGLVQAGGSLRLSCAASGLTFKLYVMGWYRQAPGKERELVAAISGGGSTYYADSVKGRFTISRDNAKNTVYLQMNSLKPEDTAVYYCAAVRYFEYEYWGQGTQVTVSS | low polyreactivity |
| QVQLVESGGGLVQAGGSLRLSCAASGLTFKRYAMGWYRQAPGKERELVAGINYSSGSTYYADSVKARFTISRDNAKNTVYLQMNSLKPEDTAVYYCAADGGISAGANSGYDYWGQGTQVTVSS | high polyreactivity |
| QVQLVESGGGLVQAGGSLRLSCAASGLTFKRYAMGWYRQAPGKERELVASITGNGGSTYYADSVKGRFTISRDNAKNTVYLQMNSLIPEDTAVYYCNSRRYVRTSQQPLYDYWGQVTQVTVSS | high polyreactivity |
